Results on 21 molecules are retold here after US20240400701A1 (LANOVA MEDICINES DEVELOPMENT, published 2024).

Substitutions are numbered along the chain they refer to.

B1: xi35D4G3 hIgG1 (antibody, V domains shown)
VH: QVRLLQSGAALVKPGASAKMSCKASGYTFTDYWVSWVKQSHGKSLEWIGEIYPDNGITNFNEKFKGKATLTVDKSTRTAYMELSRLTSEDSAIYYCTRQRDYWGQGVMVTVSS
VL: DVVLTQTPGSLSVTLGDQVSISCRSSQSLKYGDGYTYLEWYLQKPGQSPQLLFYGVSNRFSGVPDRFIGSGSGTDFTLKISRVEPEDLGVYYCFQATHDPNTFGTGTKLDLK
notes: Murine variable domains in human chimeric format, human IgG1; also called 35D4G3 (chimeric)
B2: xi103C5G10F9 hIgG1 (antibody, V domains shown)
VH: DVQLQESGPGLVKPSQSLSLTCTVTGYSITSDYAWNWIRQFPGNKLEWMGYISYSGSTSYNPSLKSRISITRDTSKNQFFLQLNSVTTEDTATYYCARSRYSWFDYWGQGTLVTVSA
VL: DIVLTQSPTSLAVSLGQRATLSCSASESVDTYGNSFMHWYQQKPGQSPKLLIYRASSLESGIPARFSGSGSRTDFTLTINPVEAADVATYYCQQSNEDPYTFGGGTKLEIK
notes: Murine variable domains in human chimeric format, human IgG1; also called 103C5G10F9 (chimeric)
B3: xi114A2B5 hIgG1 (antibody, V domains shown)
VH: B2 VH
VL: B2 VL with T9A, S24R
notes: Murine variable domains in human chimeric format, human IgG1; also called 114A2B5 (chimeric)
B4: 31D9B3 H1L2 hIgG1 (antibody, V domains shown)
VH: QVQLVQSGAEVKKPGASVKVSCKASGYTFTDYWVSWVRQAPGQGLEWMGEIYPKNGVSNFNEKFKGRVTMTTDTSTSTAYMELRSLRSDDTAVYYCARQRDYWGQGTLVTVSS
VL: DVVMTQSPLSLPVTLGQPASISCRSSQSLEYGDGYTYLEWYLQRPGQSPRLLIYGVSNRFSGVPDRFSGSGSGTDFTLKISRVEAEDVGVYYCFQATHDPNTFGQGTKLEIK
notes: Humanized, human IgG1; also called 31D9B3 H1L2 hlgG1; 31D9B3 VH1-VL2 hlgG1
B5: 94C4C3 H4L3 hIgG1 (antibody, V domains shown)
VH: QVQLQESGPGLVKPSETLSLTCTVTGYSITSDYAWNWIRQFPGKKLEWMGYISYSGSISYNPSLKSRITISRDTSKNQFFLQLSSVTAADTAVYYCARSRYSWFDYWGQGTLVTVSS
VL: EIVLTQSPGTLSLSPGERATLSCSASESVDTYGNSFMHWYQQKPGQPPRLLIYRASSLESGIPVRFSGSGSRTDFTLTISRVEAEDFAVYYCQQSNEDPYTFGGGTKLEIK
notes: Humanized, human IgG1; also called 94C4C3 H4L3 hlgG1
B6: 94C4C3 H4L4 hIgG1 (antibody, V domains shown)
VH: B5 VH
VL: B5 VL with E1D, L13V, R49K
notes: Humanized, human IgG1; also called 94C4C3 H4L4 hlgG1
B7: 31D9B3 H2L1 hIgG1 (antibody, V domains shown)
VH: B4 VH with K12V, M48I, T72V, A97T
VL: B4 VL with Y41F, L42Q, L51R
notes: Humanized, human IgG1; also called 31D9B3 H2L1 hlgG1
B8: 31D9B3 H1L1 hIgG1 (antibody, V domains shown)
VH: B4 VH
VL: B4 VL with Y41F, L42Q, L51R
notes: Humanized, human IgG1; also called 31D9B3 H1L1 hlgG1
B9: 31D9B3 H2L2 hIgG1 (antibody, V domains shown)
VH: B4 VH with K12V, M48I, T72V, A97T
VL: B4 VL
notes: Humanized, human IgG1; also called 31D9B3 H2L2 hlgG1
B10: 31D9B3 H1L4 hIgG1 (antibody, V domains shown)
VH: B4 VH
VL: B4 VL with M4L, R50Q, S68I, A85P, Q105A
notes: Humanized, human IgG1; also called 31D9B3 H1L4 hlgG1
B11: 31D9B3 H2L3 hIgG1 (antibody, V domains shown)
VH: B4 VH with K12V, M48I, T72V, A97T
VL: B4 VL with S68I, Q105A
notes: Humanized, human IgG1; also called 31D9B3 H2L3 hlgG1
B12: 31D9B3 H2L4 hIgG1 (antibody, V domains shown)
VH: B4 VH with K12V, M48I, T72V, A97T
VL: B4 VL with M4L, R50Q, S68I, A85P, Q105A
notes: Humanized, human IgG1; also called 31D9B3 H2L4 hlgG1
B13: 31D9B3 H1L3 hIgG1 (antibody, V domains shown)
VH: B4 VH
VL: B4 VL with S68I, Q105A
notes: Humanized, human IgG1; also called 31D9B3 H1L3 hlgG1
B14: 31D9B3 H3L4 hIgG1 (antibody, V domains shown)
VH: B4 VH with K13V, V20M, A40S, M48I, M70L, T72V, T74K, A97T, T107V
VL: B4 VL with M4L, R50Q, S68I, A85P, Q105A
notes: Humanized, human IgG1; also called 31D9B3 H3L4 hlgG1
B15: 31D9B3 H4L4 hIgG1 (antibody, V domains shown)
VH: QVQLVQSGAEVVKPGASVKMSCKASGYTFTDYWVSWVKQSPGQGLEWIGEIYPKNGVSNFNEKFKGKATLTVDKSTSTAYMELRRLRSDDTAVFYCTRQRDYWGQGVLVTVSS
VL: B4 VL with M4L, R50Q, S68I, A85P, Q105A
notes: Humanized, human IgG1; also called 31D9B3 H4L4 hlgG1
B16: 31D9B3 H4L2 hIgG1 (antibody, V domains shown)
VH: B15 VH
VL: B4 VL
notes: Humanized, human IgG1; also called 31D9B3 H4L2 hlgG1
B17: 31D9B3 H4L1 hIgG1 (antibody, V domains shown)
VH: B15 VH
VL: B4 VL with Y41F, L42Q, L51R
notes: Humanized, human IgG1; also called 31D9B3 H4L1 hlgG1
B18: 31D9B3 H4L3 hIgG1 (antibody, V domains shown)
VH: B15 VH
VL: B4 VL with S68I, Q105A
notes: Humanized, human IgG1; also called 31D9B3 H4L3 hlgG1
B19: 31D9B3 H3L2 hIgG1 (antibody, V domains shown)
VH: B15 VH with V12K, K13V, K38R, K67R, A68V, R85S, F94Y
VL: B4 VL
notes: Humanized, human IgG1; also called 31D9B3 H3L2 hlgG1
B20: 31D9B3 H3L3 hIgG1 (antibody, V domains shown)
VH: B15 VH with V12K, K13V, K38R, K67R, A68V, R85S, F94Y
VL: B4 VL with S68I, Q105A
notes: Humanized, human IgG1; also called 31D9B3 H3L3 hlgG1
B21: 31D9B3 H3L1 hIgG1 (antibody, V domains shown)
VH: B15 VH with V12K, K13V, K38R, K67R, A68V, R85S, F94Y
VL: B4 VL with Y41F, L42Q, L51R
notes: Humanized, human IgG1; also called 31D9B3 H3L1 hlgG1

One experiment addresses T1, human AMHRII (anti-Mullerian hormone receptor type 2) (human, UniProt Q16671 18-573).
T1 sequence (looked up): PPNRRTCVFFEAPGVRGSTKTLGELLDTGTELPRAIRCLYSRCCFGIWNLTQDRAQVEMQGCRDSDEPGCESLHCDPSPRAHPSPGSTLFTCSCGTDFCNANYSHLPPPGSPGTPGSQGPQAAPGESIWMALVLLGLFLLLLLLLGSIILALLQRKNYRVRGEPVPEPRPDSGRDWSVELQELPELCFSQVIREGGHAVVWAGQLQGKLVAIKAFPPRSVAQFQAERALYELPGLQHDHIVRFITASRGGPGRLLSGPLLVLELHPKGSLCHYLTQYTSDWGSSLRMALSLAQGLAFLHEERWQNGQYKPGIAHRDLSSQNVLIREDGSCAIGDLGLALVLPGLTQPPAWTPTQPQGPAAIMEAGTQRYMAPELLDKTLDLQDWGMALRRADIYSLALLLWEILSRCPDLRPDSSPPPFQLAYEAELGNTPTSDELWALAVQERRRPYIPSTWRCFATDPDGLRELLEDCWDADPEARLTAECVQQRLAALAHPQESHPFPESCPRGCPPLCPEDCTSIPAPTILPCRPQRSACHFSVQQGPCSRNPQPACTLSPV
Description: cell-based or functional assay.
Consider B1, for which the “ADCC reporter bioassay, EC50” value was determined as 0.25 nM and the “ADCC reporter bioassay, Top (MFI)” value came to 14500 MFI.

Consider B2, for which the “ADCC reporter bioassay, EC50” value turned out to be 0.39 nM and the “ADCC reporter bioassay, Top (MFI)” value was 13900 MFI.

For the molecule B3, the “ADCC reporter bioassay, EC50” value came out at 0.34 nM and the “ADCC reporter bioassay, Top (MFI)” value was determined as 14100 MFI.

A further experiment concerns the target T1, human AMHRII (anti-Mullerian hormone …). Description: FACS on Rko cells over-expressing human AMHR2. As for the experimental part:
Similarly, the binding of these antibodies was tested with Rko cells that over-expressed AMHR2. 100 μl of 1×10⁶ cells/ml of cells were incubated with the antibodies in 3-fold serial dilutions starting from 300 nM to 0.002 nM for 30 minutes on ice. After being washed with 200 μl of FACS buffer twice, cells were incubated with secondary antibody for 30 minutes on ice. Cells were washed with 200 μl of FACS buffer twice and analyzed by FACS.
B1: the EC50 was found to be 0.49 nM and the “Top (MFI)” value was 8290 MFI.

In the case of B2, a half-maximal response (EC50) required 0.43 nM and the “Top (MFI)” value came out at 8580 MFI.

On to B3, for which it took 0.52 nM to reach a half-maximal effect (EC50) and the “Top (MFI)” value was found to be 8330 MFI.

The next experiment shares this target. Description: FACS on Rko cells over-expressing human AMHR2. This is another data set of the same source. As for the experimental part:
Rko cells over-expressing AMHR2 were harvested from flasks. 100 μl of 1×10⁶ cells/ml of cells were incubated with primary PTM antibodies in 3-fold serial dilutions starting from 300 nM to 0.001 nM for 30 minutes on ice. After being washed with 200 μl of FACS buffer twice, cells were incubated with secondary antibody for 30 minutes on ice. Cells were washed with 200 μl of FACS buffer twice and analyzed by FACS.
As to B4, the EC50 was determined as 1.21 nM and the “Top (MFI)” value was 18300 MFI.

A further experiment has the same target. Description: FACS on CHO-K1 cells over-expressing human AMHR2. Here is the method:
CHO-K1 cells that over-expressed AMHR2 were harvested from flasks. 100 μl of 1×10⁶ cells/ml of cells were incubated with primary chimeric antibodies (or with positive reference antibody Ref.Ab) in 3-fold serial dilutions starting from 300 nM to 0.002 nM for 30 minutes on ice. After being washed with 200 μl of FACS buffer twice, cells were incubated with secondary antibody for 30 minutes on ice. Cells were washed with 200 μl of FACS buffer twice and analyzed by FACS.
As to B1, a half-maximal response (EC50) required 0.11 nM and the “Top (MFI)” value was found to be 114000 MFI.

Consider B2, for which the half-maximal effective concentration (EC50) was 1.08 nM and the “Top (MFI)” value is 124000 MFI.

As for B3, the EC50 was 1.04 nM and the “Top (MFI)” value was determined as 127000 MFI.

The target is the same in the next experiment. Description: FACS on CHO-K1 cells over-expressing human AMHR2. The source holds these as a separate data set. As for the experimental part:
(§1) CHO-K1 cells over-expressed AMHR2 were harvested from flasks. 100 μl of 1×10⁶ cells/ml of cells were incubated with the humanized antibodies in 3-fold serial dilutions starting from 300 nM to 0.001 nM for 30 minutes on ice. After being washed with 200 μl of FACS buffer twice, cells were incubated with secondary antibody for 30 minutes on ice. Cells were washed with 200 μl of FACS buffer twice and analyzed by FACS.
For the molecule B5, the response was half-maximal at 1.16 nM (EC50) and the “Top (MFI)” value worked out at 51100 MFI.

With B6, the EC50 came to 1.09 nM and the “Top (MFI)” value was 57900 MFI.

For another experiment the target is unchanged. Description: FACS on CHO-K1 cells over-expressing human AMHR2. The source holds these as a separate data set. Here is the method:
as §1
Regarding B4, the 50% effective concentration (EC50) turned out to be 1.49 nM and the “Top (MFI)” value stood at 36200 MFI.

Consider B7, for which the EC50 stood at 22.5 nM and the “Top (MFI)” value amounted to 19100 MFI.

For the molecule B8, the response was half-maximal at 89.1 nM (EC50) and the “Top (MFI)” value was found to be 8940 MFI.

B9: the concentration giving a half-maximal response (EC50) was 1.58 nM and the “Top (MFI)” value came out at 37900 MFI.

For B10, the EC50 amounted to 1.42 nM and the “Top (MFI)” value was found to be 34100 MFI.

For B11, a half-maximal effect (EC50) was put at 1.28 nM and the “Top (MFI)” value amounted to 36700 MFI.

Turning to B12, the EC50 was 1.67 nM and the “Top (MFI)” value came to 39200 MFI.

Regarding B13, a half-maximal effect (EC50) was put at 1.36 nM and the “Top (MFI)” value was 34700 MFI.

A further experiment has the same target. Description: FACS on CHO-K1 cells over-expressing human AMHR2. This is another data set of the same source. Here is the method:
as §1
As to B14, the concentration for a half-maximal effect (EC50) was 1.01 nM and the “Top (MFI)” value amounted to 36400 MFI.

Regarding B15, it took 0.75 nM to reach a half-maximal effect (EC50) and the “Top (MFI)” value amounted to 37200 MFI.

Take B16: a half-maximal response (EC50) required 0.84 nM and the “Top (MFI)” value came to 36200 MFI.

B17: the response was half-maximal at 2.18 nM (EC50) and the “Top (MFI)” value stood at 16100 MFI.

On to B18, for which the midpoint of the response, the EC50, lay at 0.83 nM and the “Top (MFI)” value was 36000 MFI.

For the molecule B19, the concentration giving a half-maximal response (EC50) is 1.05 nM and the “Top (MFI)” value was determined as 37900 MFI.

Take B20: the concentration for a half-maximal effect (EC50) turned out to be 1.3 nM and the “Top (MFI)” value was found to be 38000 MFI.

Regarding B21, the EC50 was determined as 3.01 nM and the “Top (MFI)” value was found to be 19600 MFI.

Another experiment has the same target. Description: FACS on CHO-K1 cells over-expressing human AMHR2. The source holds these as a separate data set. Here is the method: as §1
Consider B4, for which the midpoint of the response, the EC50, lay at 1.06 nM and the “Top (MFI)” value turned out to be 26700 MFI.
